Data: publication PMC6335423, “Recurrent activating mutations of PPARγ associated with luminal bladder tumors” (Nature Communications, 2019)
One block for each binder: values may come before it. Ends that are not written are not given here.

Columns and labels:
[1] = biological target: T1, PPARγ ligand-binding domain, wild type, His-hPPARγ (231–505) (human, UniProt P37231-1 231-505); assay: MST; with GW1929
T1 chain: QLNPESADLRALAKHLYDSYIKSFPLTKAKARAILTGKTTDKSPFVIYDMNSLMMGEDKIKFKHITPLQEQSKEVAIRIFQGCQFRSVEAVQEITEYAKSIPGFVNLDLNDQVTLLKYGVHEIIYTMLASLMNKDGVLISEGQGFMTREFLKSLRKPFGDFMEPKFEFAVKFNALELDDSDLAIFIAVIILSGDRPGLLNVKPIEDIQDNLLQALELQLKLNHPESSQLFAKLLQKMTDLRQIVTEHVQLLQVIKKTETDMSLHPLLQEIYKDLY

[2] = biological target: T1, PPARγ ligand-binding domain, wild type, …; assay: MST; apo (no ligand)
[3] = biological target: T1, PPARγ ligand-binding domain, wild type, …; assay: MST; with rosiglitazone
[4] = biological target: T2, PPARγ ligand-binding domain, wild type, His-hPPARγ (231–505) (human, UniProt P37231-1 231-505); assay: MST; no ligand; unlabeled PPARγ LBD (100 µM to 2 nM) titrated into 150 nM fluorescent PGC1α peptide; 20 mM Tris pH 8.0, 200 mM NaCl, 1 mM TCEP, 0.05% Tween 20, 25 °C; apparent Kd; conditions: both partners purified
T2 construct: Cloned in pET15b; also called PPARγ LBD WT; PPARγ WT; source: E. coli BL21 DE3, purified (Ni-NTA, size exclusion on Superdex 200)
T2 sequence (looked up): T1 chain

[5] = biological target: T2, PPARγ ligand-binding domain, wild type, …; assay: native MS; native electrospray MS, 5 µM protein in 200 mM ammonium acetate pH 6.8; GW1929 and coactivator peptide added; conditions: both partners purified

Kd [1]: 0.38 µM
Kd [2]: 1.7 µM
Kd [3]: 1 µM
binding result [4]: binds
B1: fluorescent PGC1α peptide (137-EAEEPSLLKKLLLAPA-152) (peptide)
peptide: EAEEPSLLKKLLLAPA
modifications: also: fluorescent label (dye and position not given here)
notes: PGC1α (PPARGC1A) residues 137-152, NR1 LXXLL motif; also called fluorescently labeled PGC1α peptide; PGC1α NR1 motif; source: bought: Thermo-Fisher (synthetic peptide)

binding result [5]: binds
B2: PGC1α peptide (139-EEPSLLKKLLLAPA-152) (peptide)
peptide: EEPSLLKKLLLAPA
notes: PGC1α (PPARGC1A) residues 139-152; source: synthetic peptide (IGBMC peptide synthesis common facility)
